Test results taken from patent US20200024330A1.

Assays:
Test in all cases: cell-based or functional assay
[1] = target: HIV-1 Env of isolate MGRM-D-028 (clade D) (HIV-1)
[2] = target: HIV-1 92UG005 envelope protein (Env) on pseudovirus (HIV-1)
[3] = target: HIV-1 92RW009 envelope glycoprotein (Env) (HIV-1)
[4] = target: HIV-1 Env of isolate MGRM-D-011 (clade D) (HIV-1)
[5] = target: HIV-1 Env of pseudovirus PVO.4 (Acute), clade B (HIV-1)
[6] = target: HIV-1 Env of pseudovirus MGRM-Chronic-B-002, clade B (HIV-1)
[7] = target: HIV-1 MGRM-A-008 envelope glycoprotein (Env) (HIV-1)
[8] = target: HIV-1 Env of isolate MGRM-AE-001 (HIV-1)
[9] = target: HIV-1 Env of isolate MGRM-G-027 (clade G pseudovirus) (HIV-1)
[10] = target: HIV-1 MGRM-F1-022 Env (pseudovirus) (HIV-1)
[11] = target: HIV-1 MGRM-F1-016 Env (pseudovirus) (HIV-1)
[12] = target: HIV-1 Env of isolate 92UG001 (clade D) (HIV-1)
[13] = target: HIV-1 Env of pseudovirus 92BR020, clade B (HIV-1)
[14] = target: HIV-1 94UG103 envelope glycoprotein (Env) (HIV-1)
[15] = target: HIV-1 CMU02 envelope protein (Env) on pseudovirus (HIV-1)
[16] = target: HIV-1 Env of isolate QH0692.42 (HIV-1)
[17] = target: HIV-1 Env of isolate MGRM-A-014 (clade A), on pseudovirus (HIV-1)
[18] = target: HIV-1 Env of isolate MGRM-A-012 (clade A), on pseudovirus (HIV-1)
[19] = target: HIV-1 Env of isolate MGRM-AE-008 (CRF01_AE), on pseudovirus (HIV-1)
[20] = target: HIV-1 Env of isolate 92UG001 (HIV-1)
[21] = target: HIV-1 Env of isolate MGRM-F1-012 (subtype F), on pseudovirus (HIV-1)
[22] = target: HIV-1 Env of isolate MGRM-C-022 (HIV-1)
[23] = target: HIV-1 Env of isolate MGRM-C-019 (HIV-1)
[24] = target: HIV-1 Env of isolate MGRM-D-003 (HIV-1)
[25] = target: HIV-1 Env of isolate MGRM-Chronic-B-004 (HIV-1)
[26] = target: HIV-1 Env of isolate TRO.11 (HIV-1)
[27] = target: HIV-1 Env of isolate MG RM-A-006 (HIV-1)
[28] = target: HIV-1 Env of isolate 97ZA012 (HIV-1)
[29] = target: HIV-1 Env of isolate MGRM-A-009 (clade A), on pseudovirus (HIV-1)
[30] = target: HIV-1 Env of isolate MGRM-C-007 (HIV-1)
[31] = target: HIV-1 93UG077 envelope glycoprotein (Env) on pseudovirus (HIV-1)
[32] = target: HIV-1 APV6 envelope glycoprotein (Env) on pseudovirus (HIV-1)
[33] = target: HIV-1 JR-CSF Env P470A (HIV-1 (isolate JR-CSF)) (UniProt P20871)
[34] = target: HIV-1 JR-CSF Env N156A (HIV-1 (isolate JR-CSF)) (UniProt P20871)
[35] = target: HIV-1 Env of isolate 92UG024 (subtype D) (HIV-1)
[36] = target: HIV-1 MGRM-Chronic-B-023 Env (pseudovirus) (HIV-1)
[37] = target: HIV-1 CMU02 envelope glycoprotein (Env) on pseudovirus (HIV-1)
[38] = target: HIV-1 JR-CSF Env Y177A (HIV-1 (isolate JR-CSF)) (UniProt P20871)
[39] = target: HIV-1 Env of isolate MGRM-C-024 (pseudovirus) (HIV-1 isolate MGRM-C-024, subtype C)
[40] = target: HIV-1 JR-CSF Env R480A (HIV-1 (isolate JR-CSF)) (UniProt P20871)
[41] = target: aMLV envelope on pseudovirus (negative control virus)
[42] = target: HIV-1 SC422661.8 Env (pseudovirus) (HIV-1)
[43] = target: HIV-1 Env of isolate MG RM-D-008 (subtype D) (HIV-1)
[44] = target: HIV-1 JR-CSF Env T162A (HIV-1 (isolate JR-CSF)) (UniProt P20871)

Sequence of 5345_I01 (PGT-137) (antibody) (VH): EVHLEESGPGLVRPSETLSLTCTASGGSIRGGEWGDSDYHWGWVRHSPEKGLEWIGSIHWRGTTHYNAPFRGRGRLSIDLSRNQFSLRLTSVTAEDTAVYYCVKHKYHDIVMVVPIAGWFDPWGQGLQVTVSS
Sequence of 5345_I01 (PGT-137) (antibody) (VL): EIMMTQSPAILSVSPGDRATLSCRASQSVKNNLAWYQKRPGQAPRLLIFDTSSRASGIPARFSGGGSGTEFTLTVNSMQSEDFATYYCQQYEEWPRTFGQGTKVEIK
Sequence of 5329_C19 (PGT-136) (antibody) (VH): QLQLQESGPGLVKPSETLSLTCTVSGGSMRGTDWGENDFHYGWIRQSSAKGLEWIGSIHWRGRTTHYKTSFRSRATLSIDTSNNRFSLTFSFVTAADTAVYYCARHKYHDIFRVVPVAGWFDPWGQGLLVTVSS
Sequence of 5329_C19 (PGT-136) (antibody) (VL): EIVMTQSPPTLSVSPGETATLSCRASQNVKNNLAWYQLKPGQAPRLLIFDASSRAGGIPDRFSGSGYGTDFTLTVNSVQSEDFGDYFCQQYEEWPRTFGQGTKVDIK

Substance 1495_C14 (PGC14) (antibody) has an IC50 (µg/ml), pseudovirus neutralization [1] of over 50 µg/mL, a neutralization IC50 [2] of over 50 µg/mL and an IC50 (µg/ml), pseudovirus neutralization [3] of over 50 µg/mL. The IC50 (µg/ml), pseudovirus neutralization [4] was over 50 µg/mL, the IC50 (µg/ml), pseudovirus neutralization [5] was over 50 µg/mL and the IC50 (µg/ml), pseudovirus neutralization [6] was over 50 µg/mL. It also gave an IC50 (µg/ml), pseudovirus neutralization [7] of over 50 µg/mL, an IC50 (µg/ml), pseudovirus neutralization [8] of over 50 µg/mL and an IC50 (µg/ml), pseudovirus neutralization [9] of over 50 µg/mL. For the same substance, the IC50 (µg/ml), pseudovirus neutralization [10] was over 50 µg/mL, the IC50 (µg/ml), pseudovirus neutralization [11] was over 50 µg/mL and the IC50 (µg/ml), pseudovirus neutralization [12] was over 50 µg/mL. It also gave an IC50 (µg/ml), pseudovirus neutralization [13] of 4 µg/mL, an IC50 (µg/ml), pseudovirus neutralization [14] of over 50 µg/mL and a neutralization IC50 [15] of over 50 µg/mL.
5329_C19 (PGT-136) (antibody) showed an IC50 [16] of over 50 µg/mL, an IC50, single-round pseudovirus neutralization [17] of over 50 µg/mL and an IC50, single-round pseudovirus neutralization [18] of over 50 µg/mL. It also gave an IC50, single-round pseudovirus neutralization [19] of over 50 µg/mL, an IC50 [20] of over 50 µg/mL and an IC50, pseudovirus neutralization [21] of over 50 µg/mL. It also gave an IC50 [22] of over 50 µg/mL, an IC50 [23] of 20.1 µg/mL and an IC50 [24] of over 50 µg/mL. It also gave an IC50 [25] of over 50 µg/mL, an IC50 [26] of 0.073 µg/mL and a neutralization IC50 [27] of over 50 µg/mL. It also gave an IC50 [28] of over 50 µg/mL, an IC50, single-round pseudovirus neutralization [29] of over 50 µg/mL and an IC50 [30] of over 50 µg/mL.
For 5141_B17 (PGT-126) (antibody), the IC50 (ug/ml), neutralizing activity [31] was 0.0256 µg/mL, the IC50 (ug/ml), neutralizing activity [32] was 0.0249 µg/mL and the Fold IC50 increase relative to wild-type [33] was 2.7 fold. It also gave a Fold IC50 increase relative to wild-type [34] of 1.8 fold, an IC50 (µg/mL), pseudovirus neutralization [35] of over 50 µg/mL and an IC50, pseudovirus neutralization [36] of over 50 µg/mL. It also gave an IC50 (ug/ml), neutralizing activity [37] of over 10 µg/mL, a Fold IC50 increase relative to wild-type [38] of 0.9 fold and an IC50 (µg/mL) neutralization [39] of over 50 µg/mL. It also gave a Fold IC50 increase relative to wild-type [40] of 1.9 fold, an IC50 (ug/ml), neutralizing activity [41] of over 10 µg/mL and an IC50, pseudovirus neutralization [42] of 0.119 µg/mL. The IC50 (µg/mL), pseudovirus neutralization [43] was 43.1 µg/mL and the Fold IC50 increase relative to wild-type [44] was 0.6 fold.
With 5345_I01 (PGT-137) (antibody) the IC50 [16] was over 50 µg/mL, the IC50, single-round pseudovirus neutralization [17] was 18.6 µg/mL and the IC50, single-round pseudovirus neutralization [18] was over 50 µg/mL. It also gave an IC50, single-round pseudovirus neutralization [19] of over 50 µg/mL, an IC50 [20] of over 50 µg/mL and an IC50, pseudovirus neutralization [21] of over 50 µg/mL. The IC50 [22] was over 50 µg/mL, the IC50 [23] was over 50 µg/mL and the IC50 [24] was over 50 µg/mL. It also gave an IC50 [25] of over 50 µg/mL, an IC50 [26] of 9.35 µg/mL and a neutralization IC50 [27] of over 50 µg/mL. The IC50 [28] was over 50 µg/mL, the IC50, single-round pseudovirus neutralization [29] was over 50 µg/mL and the IC50 [30] was over 50 µg/mL.
5123_A06 (PGT-125) (antibody) was tested, and the IC50 (ug/ml), neutralizing activity [31] was 0.0262 µg/mL, the neutralization IC50 [31] was 0.0262 µg/mL and the neutralization IC80 [31] was 0.0926 µg/mL. For the same substance, the neutralization IC90 [31] was 0.206 µg/mL, the neutralization IC95 [31] was 0.487 µg/mL and the IC50 (ug/ml), neutralizing activity [32] was 0.0359 µg/mL. It also gave a neutralization IC50 [32] of 0.0359 µg/mL, a neutralization IC80 [32] of 0.133 µg/mL and a neutralization IC90 [32] of 0.288 µg/mL. For the same substance, the neutralization IC95 [32] was 0.597 µg/mL, the Fold IC50 increase relative to wild-type [33] was 1.6 fold and the Fold IC50 increase relative to wild-type [34] was 3.6 fold. The IC50 (µg/mL), pseudovirus neutralization [35] was over 50 µg/mL, the IC50, pseudovirus neutralization [36] was over 50 µg/mL and the IC50 (ug/ml), neutralizing activity [37] was over 10 µg/mL. The neutralization IC50 [37] was over 10 µg/mL, the neutralization IC80 [37] was over 10 µg/mL and the neutralization IC90 [37] was over 10 µg/mL. The neutralization IC95 [37] was over 10 µg/mL, the Fold IC50 increase relative to wild-type [38] was 1.1 fold and the IC50 (µg/mL) neutralization [39] was over 50 µg/mL. It also gave a Fold IC50 increase relative to wild-type [40] of 2.1 fold, an IC50 (ug/ml), neutralizing activity [41] of over 10 µg/mL and an IC50, pseudovirus neutralization [42] of 30.1 µg/mL. For the same substance, the IC50 (µg/mL), pseudovirus neutralization [43] was over 50 µg/mL and the Fold IC50 increase relative to wild-type [44] was 0.5 fold.
